Earlier results as cited in PMC4472561 (The FEBS journal, 2015).

Columns and labels:
neural progenitor cells = details: in words; ref [24]
[1] = test system: CD8^+ cytotoxic effector memory T cells; details: in words; ref [25]
Kv1.1 = Kv1.1 (UniProt Q09470)
Sequence of UniProt Q09470 (Q09470 whole entry): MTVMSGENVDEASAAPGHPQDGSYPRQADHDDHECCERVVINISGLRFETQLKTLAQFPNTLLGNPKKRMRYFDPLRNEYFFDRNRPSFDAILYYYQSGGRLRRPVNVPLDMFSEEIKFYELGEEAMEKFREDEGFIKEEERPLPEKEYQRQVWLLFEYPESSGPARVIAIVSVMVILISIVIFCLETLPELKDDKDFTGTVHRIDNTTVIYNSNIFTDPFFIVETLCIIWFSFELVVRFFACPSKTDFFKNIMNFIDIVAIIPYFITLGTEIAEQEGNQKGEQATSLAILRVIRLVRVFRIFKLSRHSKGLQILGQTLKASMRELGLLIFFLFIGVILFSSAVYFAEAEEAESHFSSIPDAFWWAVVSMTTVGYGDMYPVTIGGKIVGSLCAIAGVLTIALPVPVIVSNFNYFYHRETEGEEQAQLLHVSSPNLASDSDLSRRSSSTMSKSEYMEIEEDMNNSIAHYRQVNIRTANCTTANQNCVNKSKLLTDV

Substance	differentiation of neural progenitor cells into neurons (neural progenitor cells)	proliferation of CD8+ cytotoxic effector memory T cells and secretion of granzyme B [1]	Kd (Kv1.1) [nM]
MgTx (TIINVKCTSPKQCLPPCKAQFGQSAGAKCMNGKCKCYPH; UniProt P40755 1-39, looked up)	increased the differentiation of neural progenitor cells into neurons and enhanced neuron-regeneration	blocked the proliferation of CD8^+ cytotoxic effector memory T cells and their secretion of granzyme B	–
ChTx	–	blocked the proliferation of CD8^+ cytotoxic effector memory T cells and their secretion of granzyme B	–
ShK (from UniProt P29187)	–	–	0.016
